Assay results taken from patent publication US20240150440A1 (LUMEN BIOSCIENCE, published 2024).

B1: PP1897 Cerberbody (3-S3b-C8) (other, not shown: large carriers)
chain 1: QVQLVESGGGLVQPGGSLRLSCAASGSIENIERMHWYRQAPGKQRELVAVIDSGGTTRYADSVKGRFTISRDNAKNTVYLQMNSLKPEDTAVYYCAAVWLTNAESTQEYWGQGTQVTVSSHHHHHH
chain 2: QVQLVESGGGLVQPGGSLRLSCAASGSIENIERMHWYRQAPGKQRELVAVIDSGGTTRYADSVKGRFTISRDNAKNTVYLQMNSLKPEDTAVYYCAAVWLTNAESTQEYWGQGTQVTVSSTVILEYAHRLSQDILSDALQQWASHHHHHHHH
B2: PP903 MBP-5HVZ-R1i-A11-H6 (VHH)
VHH: QVQLVESGGGLVQPGGSLRLSCAASGSILQINAIHWFRQAPGKQREEVAAITSGGSTGYADSVKGRFTISRDNAKNTVYLQMNSLKPEDTAVYYCAATSTRGGLDSDYWGQGTQVTVSS
notes: Form: Dimer
B3: dimeric VHH (VHH-5HVZ-MBP) R2B-E6 (VHH)
VHH: QVQLVESGGGLVQPGGSLRLSCAASGGVTRGNAMAWYRQAPGKQREIVAAIDNGGSHAYGDSVKGRFTISRDNAKNTVYLQMNSLKPEDTAVYYCAVFPDHDSEQASIDRVYWGQGTQVTVSS
B4: PP1147 MBP-5HVZ-PAPA-R5a-B7-H6 (VHH)
VHH: QVQLVESGGGLVQPGGSLRLSCAASGAFFSYGAIHWFRQAPGKQREEVAAITSGGSTGYADSVKGRFTISRDNAKNTVYLQMNSLKPEDTAVYYCNAGVVWLPSNAAYNLWGQGTQVTVSS
notes: Form: Dimer
B5: PP1146 MBP-5HVZ-PAPA-R2d-D3-H6 (VHH)
VHH: QVQLVESGGGLVQPGGSLRLSCAASGHIFSINNAAWVRQAPGKSREGVATIHSGGGTYYSDSVKGRFTISRDNAKNTVYLQMNSLKPEDTAVYYCNAEVSTGAGSRGRVSDVYWGQGTQVTVSS
notes: Form: Dimer
B6: PP1131 MBP-4B0F-PAPA-R2b-D5-H6 (VHH)
VHH: QVQLVESGGGLVQPGGSLRLSCAASGYADEINMVHWYRQAPGKGREFVAAIASGGSTFYADSVKGRFTISRDNAKNTVYLQMNSLKPEDTAVYYCAAIPRPSLSYAHDYAYWGQGTQVTVSS
notes: Form: Heptamer
B7: MBP-R2B-D5-H6 (VHH)
VHH: QVQLVESGGGLVQPGGSLRLSCAASGYADEINMVHWYRQAPGKGREFVAAIASGGSTFYADSVKGRFTISRDNAKNTVYLQMNSLKPEDTAVYYCAAIPRPSLSYAHDYAYWGQGTQVTVSS
notes: monomer
B8: PP1155 MPB-scTRP-PAPA-R2b-D5-H6 (VHH)
VHH: QVQLVESGGGLVQPGGSLRLSCAASGYADEINMVHWYRQAPGKGREFVAAIASGGSTFYADSVKGRFTISRDNAKNTVYLQMNSLKPEDTAVYYCAAIPRPSLSYAHDYAYWGQGTQVTVSS
notes: Form: Trimer
B9: PP1103 MBP-5HVZ-PAPA-RN-18-H6 (VHH)
VHH: QVQLVESGGGLVQPGGSLRLSCAASGYYFQIVAMHWYRQAPGKEREGVAGITSTGSTYYGDSVKGRFTISRDNAKNTVYLQMNSLKPEDTAVYYCNAVSTDAQGAAEYWGQGTQVTVSS
notes: Form: Dimer

Columns and labels:
[1] = target: SARS-CoV-2 Delta Variant spike protein on pseudotyped lentivirus (SARS-CoV-2 Delta variant); experiment: cell-based or functional assay
[2] = target: T1, SARS-CoV-2 spike protein on pseudotyped lentivirus (Wuhan Reference Pseudovirus) (SARS-CoV-2, UniProt P0DTC2 14-1273); experiment: cell-based or functional assay
[3] = target: T1, SARS-CoV-2 spike protein on pseudotyped …; experiment: cell-based or functional assay; remark: listed apart in the source
[4] = target: T1, SARS-CoV-2 spike protein on pseudotyped …; experiment: cell-based or functional assay; remark: listed apart in the source
[5] = target: T2, SARS-CoV-2 Alpha Variant RBD (SARS-CoV-2 Alpha variant); experiment: ELISA, RBD coated
T2 construct: domain: RBD; coated on ELISA plates

[6] = target: T3, SARS-CoV-2 Delta Variant RBD (SARS-CoV-2 Delta variant); experiment: ELISA, RBD coated
T3 construct: domain: RBD; coated on ELISA plates

[7] = target: T1, SARS-CoV-2 spike protein on pseudotyped …; experiment: cell-based or functional assay; remark: listed apart in the source
[8] = target: T1, SARS-CoV-2 spike protein on pseudotyped …; experiment: cell-based or functional assay; remark: listed apart in the source
[9] = target: SARS-CoV-2 Gamma Variant spike protein on pseudotyped lentivirus (SARS-CoV-2 Gamma variant); experiment: cell-based or functional assay
[10] = target: T4, SARS-CoV-2 Beta Variant RBD (SARS-CoV-2 Beta variant); experiment: ELISA, RBD coated
T4 construct: domain: RBD; coated on ELISA plates

[11] = target: T5, SARS-CoV-2 Gamma Variant RBD (SARS-CoV-2 Gamma variant); experiment: ELISA, RBD coated
T5 construct: domain: RBD; coated on ELISA plates

Binder | Pseudovirus neutralization IC50 [1] | Pseudovirus neutralization IC50 [3] | infectivity % under 10 ug/mL VHH treatment [4] | EC50 [5] | EC50 [6] | Pseudovirus inhibition IC50 [7] | other results
B1 | 0.09 nM | – | – | – | – | – | –
B2 | – | 56.7 nM | 38.4% | 0.28 nM | 0.26 nM | – | Pseudovirus inhibition IC50 [Cont. 6] [2]: 50.4 nM
B3 | – | – | – | – | – | 358 nM | –
B4 | 1.13 nM | 12.3 nM | 1.79% | 0.33 nM | 0.49 nM | – | Pseudovirus inhibition IC50 [Cont. 6] [2]: 0.44 nM
B5 | 4.17 nM | 36.2 nM | 32.8% | – | – | – | Pseudovirus inhibition IC50 [Cont. 1] [8]: 77 nM; Pseudovirus neutralization IC50 [9]: 6.62 nM
B6 | – | 0.93 nM | -0.01% | – | – | 0.89 nM | –
B7 | – | – | – | – | – | 176 nM | –
B8 | – | 0.634 nM | 0.01% | – | – | 1.9 nM | –
B9 | 2.49 nM | – | 57.6% | 1.45 nM | 2.69 nM | – | EC50 [10]: 227 nM; EC50 [11]: 92.8 nM
